Assay [1] addresses T1, human FcRH3 (BIACORE analyte) (human, UniProt Q96P31 18-573).
T1 chain: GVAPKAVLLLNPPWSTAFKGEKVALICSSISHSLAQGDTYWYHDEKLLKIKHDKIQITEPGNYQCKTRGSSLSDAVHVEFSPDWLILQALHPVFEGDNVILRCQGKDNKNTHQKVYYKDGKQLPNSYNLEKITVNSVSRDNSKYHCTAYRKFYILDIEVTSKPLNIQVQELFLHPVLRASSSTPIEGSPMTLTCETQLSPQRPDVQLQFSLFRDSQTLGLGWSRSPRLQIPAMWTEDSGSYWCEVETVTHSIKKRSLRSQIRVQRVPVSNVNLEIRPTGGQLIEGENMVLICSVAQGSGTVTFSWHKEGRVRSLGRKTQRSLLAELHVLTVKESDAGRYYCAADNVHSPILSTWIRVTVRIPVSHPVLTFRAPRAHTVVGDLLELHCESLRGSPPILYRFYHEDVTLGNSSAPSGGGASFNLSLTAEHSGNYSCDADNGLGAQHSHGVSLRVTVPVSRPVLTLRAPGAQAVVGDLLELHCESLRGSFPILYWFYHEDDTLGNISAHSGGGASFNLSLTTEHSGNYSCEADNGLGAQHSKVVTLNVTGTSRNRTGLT
The assay can be described thus: SPR (1:1 binding); 25 °C.

The target of assay [2] is T2, soluble human FcRH5 protein fragment (UniProt Q96RD9 16-851).
T2 chain: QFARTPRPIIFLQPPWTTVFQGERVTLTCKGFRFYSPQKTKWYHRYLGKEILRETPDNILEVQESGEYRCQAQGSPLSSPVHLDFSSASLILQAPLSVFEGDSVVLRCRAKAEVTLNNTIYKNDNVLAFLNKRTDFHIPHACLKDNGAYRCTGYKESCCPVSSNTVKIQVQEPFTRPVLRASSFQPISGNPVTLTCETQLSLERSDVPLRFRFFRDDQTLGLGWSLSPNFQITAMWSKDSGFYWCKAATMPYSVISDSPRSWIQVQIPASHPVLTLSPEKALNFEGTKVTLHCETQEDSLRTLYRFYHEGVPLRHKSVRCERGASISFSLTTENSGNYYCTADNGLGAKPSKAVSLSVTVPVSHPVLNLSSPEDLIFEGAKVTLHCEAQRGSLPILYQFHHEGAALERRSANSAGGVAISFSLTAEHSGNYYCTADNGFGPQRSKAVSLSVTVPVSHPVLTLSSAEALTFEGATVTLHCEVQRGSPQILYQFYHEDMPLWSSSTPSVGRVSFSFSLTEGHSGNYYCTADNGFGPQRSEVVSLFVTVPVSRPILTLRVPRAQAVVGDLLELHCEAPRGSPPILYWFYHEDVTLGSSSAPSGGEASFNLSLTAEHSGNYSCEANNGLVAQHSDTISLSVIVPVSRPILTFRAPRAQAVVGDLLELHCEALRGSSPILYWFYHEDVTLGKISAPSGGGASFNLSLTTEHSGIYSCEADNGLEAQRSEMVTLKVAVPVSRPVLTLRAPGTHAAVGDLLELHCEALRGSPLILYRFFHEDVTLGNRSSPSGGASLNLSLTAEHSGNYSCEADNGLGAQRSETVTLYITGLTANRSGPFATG
The experiment in a line: SPR. In general terms: SPR reads the build-up and loss of mass on a sensor chip optically.

In assay [3] the target is T2, soluble human FcRH5 protein fragment. The experiment in a line: SPR; 25 °C.
The target in assay [4] is T3, soluble cynomolgus FcRH5 protein fragment.
T3 chain: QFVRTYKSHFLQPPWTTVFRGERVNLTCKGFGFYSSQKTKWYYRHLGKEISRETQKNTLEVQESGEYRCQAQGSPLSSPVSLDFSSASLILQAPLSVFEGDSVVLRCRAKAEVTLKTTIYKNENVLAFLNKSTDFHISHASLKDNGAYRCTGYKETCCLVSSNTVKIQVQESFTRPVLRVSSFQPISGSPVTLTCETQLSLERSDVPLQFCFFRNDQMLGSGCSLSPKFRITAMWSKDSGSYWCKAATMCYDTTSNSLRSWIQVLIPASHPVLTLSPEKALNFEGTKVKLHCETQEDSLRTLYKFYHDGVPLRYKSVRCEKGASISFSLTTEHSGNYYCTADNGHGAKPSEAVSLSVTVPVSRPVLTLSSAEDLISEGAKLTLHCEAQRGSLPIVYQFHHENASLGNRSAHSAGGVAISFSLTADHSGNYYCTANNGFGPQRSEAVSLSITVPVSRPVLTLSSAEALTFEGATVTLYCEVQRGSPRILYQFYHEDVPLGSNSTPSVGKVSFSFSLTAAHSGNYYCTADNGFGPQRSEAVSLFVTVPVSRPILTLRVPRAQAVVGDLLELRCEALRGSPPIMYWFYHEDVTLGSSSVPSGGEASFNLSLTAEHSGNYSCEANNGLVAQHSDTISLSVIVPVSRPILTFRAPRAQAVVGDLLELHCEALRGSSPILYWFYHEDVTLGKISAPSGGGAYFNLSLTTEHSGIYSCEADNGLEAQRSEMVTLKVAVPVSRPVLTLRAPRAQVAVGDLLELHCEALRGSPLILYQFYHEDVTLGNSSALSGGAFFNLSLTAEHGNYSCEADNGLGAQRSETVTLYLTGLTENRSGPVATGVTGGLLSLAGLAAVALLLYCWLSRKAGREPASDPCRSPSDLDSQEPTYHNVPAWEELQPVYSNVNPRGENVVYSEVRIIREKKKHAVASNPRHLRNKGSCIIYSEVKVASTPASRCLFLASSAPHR
The experiment in a line: SPR; 25 °C.

Another assay addresses 7D8.RbIgG. The assay can be described thus: SPR; 25 °C.

The values below come from patent US20220048993A1 (published 2022).

Usually Kd stands for the equilibrium constant for the complex coming apart.

B1: 1G7.v1.4/38E4.v1 TDB (bispecific antibody, V domains shown)
VH 1: EVQLVESGPGLVKPSETLSLTCTVSGFSLTRFGVHWVRQPPGKGLEWLGVIWRGGSTDYNAAFMSRLTISKDNSKNQVSLKLSSVTAADTAVYYCSNHYYGSSDYALDNWGQGTLVTVSS
VL 1: DIQMTQSPSSLSASVGDRVTITCKASQDVRNLVVWFQQKPGKAPKLLIYSGSYRYSGVPSRFSGSGSGTDFTLTISSLQPEDFATYYCQQHYSPPYTFGQGTKVEIK
VH 2: EVQLVQSGAEVKKPGASVKVSCKASGFTFTSYYIHWVRQAPGQGLEWIGWIYPENDNTKYNEKFKDRVTITADTSTSTAYLELSSLRSEDTAVYYCARDGYSRYYFDYWGQGTLVTVSS
VL 2: DIVMTQSPDSLAVSLGERATINCKSSQSLLNSRTRKNYLAWYQQKPGQSPKLLIYWTSTRKSGVPDRFSGSGSGTDFTLTISSLQAEDVAVYYCKQSFILRTFGQGTKVEIK
Turning to B1, the Kd in assay [1] came out at 76.5 nM.

B2: hu1G7.v93/38E4.v1 TDB (bispecific antibody, V domains shown)
VH 1: EVQLVESGPGLVKPSETLSLTCTVSGFSTTRFGVHWVRQPPGKGLEWLGVIWRGGSTDYNAAFVSRLTISKDNSKNQVSLKLSSVTAADTAVYYCSNHYYGSPDYALDNWGQGTLVTVSS
VL 1: DIQMTQSPSSLSASVGDRVTITCKASQDVSNLVVWFQQKPGKAPKLLIYSGSYRYSGVPSRFSGSGSGTDFTLTISSLQPEDFATYYCQQHYSPPYTFGQGTKVEIK
VH 2: EVQLVQSGAEVKKPGASVKVSCKASGFTFTSYYIHWVRQAPGQGLEWIGWIYPENDNTKYNEKFKDRVTITADTSTSTAYLELSSLRSEDTAVYYCARDGYSRYYFDYWGQGTLVTVSS
VL 2: DIVMTQSPDSLAVSLGERATINCKSSQSLLNSRTRKNYLAWYQQKPGQSPKLLIYWTSTRKSGVPDRFSGSGSGTDFTLTISSLQAEDVAVYYCKQSFILRTFGQGTKVEIK
On to B2, for which binding in assay [2] was put at a Kd of 1.07 nM.

B3: h7D8.L1H2 (antibody)
chain 1: EVQLVESGGGLVQPGGSLRLSCAVSGIDLSSYAMGWVRQAPGKGLEWIGTIGTGGTPYYASWAKGRFTISKDSSKNTVYLQMNSLRAEDTAVYFCARDMYTGSIYYDMWGQGTLVTVSS
chain 2: DAQLTQSPSSLSASVGDRVTITCQSSQSVFNNAQLSWYQQKPGKPPKLLIYDTSNLASGVPSRFSGSGSGTDFTLTISSLQPEDFATYYCLGAYTDDADNAFGQGTKVEIK
As to B3, the Kd in assay [3] is 1.26 nM; in assay [4], 4.97 nM.

B4: Cyno FcRH5 (receptor)
chain: QFVRTYKSHFLQPPWTTVFRGERVNLTCKGFGFYSSQKTKWYYRHLGKEISRETQKNTLEVQESGEYRCQAQGSPLSSPVSLDFSSASLILQAPLSVFEGDSVVLRCRAKAEVTLKTTIYKNENVLAFLNKSTDFHISHASLKDNGAYRCTGYKETCCLVSSNTVKIQVQESFTRPVLRVSSFQPISGSPVTLTCETQLSLERSDVPLQFCFFRNDQMLGSGCSLSPKFRITAMWSKDSGSYWCKAATMCYDTTSNSLRSWIQVLIPASHPVLTLSPEKALNFEGTKVKLHCETQEDSLRTLYKFYHDGVPLRYKSVRCEKGASISFSLTTEHSGNYYCTADNGHGAKPSEAVSLSVTVPVSRPVLTLSSAEDLISEGAKLTLHCEAQRGSLPIVYQFHHENASLGNRSAHSAGGVAISFSLTADHSGNYYCTANNGFGPQRSEAVSLSITVPVSRPVLTLSSAEALTFEGATVTLYCEVQRGSPRILYQFYHEDVPLGSNSTPSVGKVSFSFSLTAAHSGNYYCTADNGFGPQRSEAVSLFVTVPVSRPILTLRVPRAQAVVGDLLELRCEALRGSPPIMYWFYHEDVTLGSSSVPSGGEASFNLSLTAEHSGNYSCEANNGLVAQHSDTISLSVIVPVSRPILTFRAPRAQAVVGDLLELHCEALRGSSPILYWFYHEDVTLGKISAPSGGGAYFNLSLTTEHSGIYSCEADNGLEAQRSEMVTLKVAVPVSRPVLTLRAPRAQVAVGDLLELHCEALRGSPLILYQFYHEDVTLGNSSALSGGAFFNLSLTAEHGNYSCEADNGLGAQRSETVTLYLTGLTENRSGPVATGVTGGLLSLAGLAAVALLLYCWLSRKAGREPASDPCRSPSDLDSQEPTYHNVPAWEELQPVYSNVNPRGENVVYSEVRIIREKKKHAVASNPRHLRNKGSCIIYSEVKVASTPASRCLFLASSAPHR
As for B4, in the assay with 7D8.RbIgG, the Kd was determined as 1.89 nM.

B5: Human FcRH5 (receptor)
chain: QFARTPRPIIFLQPPWTTVFQGERVTLTCKGFRFYSPQKTKWYHRYLGKEILRETPDNILEVQESGEYRCQAQGSPLSSPVHLDFSSASLILQAPLSVFEGDSVVLRCRAKAEVTLNNTIYKNDNVLAFLNKRTDFHIPHACLKDNGAYRCTGYKESCCPVSSNTVKIQVQEPFTRPVLRASSFQPISGNPVTLTCETQLSLERSDVPLRFRFFRDDQTLGLGWSLSPNFQITAMWSKDSGFYWCKAATMPYSVISDSPRSWIQVQIPASHPVLTLSPEKALNFEGTKVTLHCETQEDSLRTLYRFYHEGVPLRHKSVRCERGASISFSLTTENSGNYYCTADNGLGAKPSKAVSLSVTVPVSHPVLNLSSPEDLIFEGAKVTLHCEAQRGSLPILYQFHHEGAALERRSANSAGGVAISFSLTAEHSGNYYCTADNGFGPQRSKAVSLSVTVPVSHPVLTLSSAEALTFEGATVTLHCEVQRGSPQILYQFYHEDMPLWSSSTPSVGRVSFSFSLTEGHSGNYYCTADNGFGPQRSEVVSLFVTVPVSRPILTLRVPRAQAVVGDLLELHCEAPRGSPPILYWFYHEDVTLGSSSAPSGGEASFNLSLTAEHSGNYSCEANNGLVAQHSDTISLSVIVPVSRPILTFRAPRAQAVVGDLLELHCEALRGSSPILYWFYHEDVTLGKISAPSGGGASFNLSLTTEHSGIYSCEADNGLEAQRSEMVTLKVAVPVSRPVLTLRAPGTHAAVGDLLELHCEALRGSPLILYRFFHEDVTLGNRSSPSGGASLNLSLTAEHSGNYSCEADNGLGAQRSETVTLYITGLTANRSGPFATG
B5: in the assay with 7D8.RbIgG, the Kd was found to be 0.403 nM.
